Assay results taken from patent US20220177587A1, “METHODS AND USES OF VARIANT CD80 FUSION PROTEINS AND RELATED CONSTRUCTS” (Alpine Immune Sciences, Inc., priority 2018, published 2022).
Where two headings read alike, the source gives them in different places.

Legend:
CD28 (human) [1] = biological target: CD28 (human) (UniProt P10747)
PD-L1 (human) [2] = biological target: PD-L1 (human) (UniProt Q9NZQ7)
CD28 (human) [3] = biological target: CD28 (human) (UniProt P10747); experiment: flow cytometry, Jurkat cells (CD28)
human CTLA-4 (human) = human CTLA-4 (human) (UniProt P16410); experiment: flow cytometry, CHO cells expressing CTLA4
Chain of human CTLA-4 (human) (P16410 36-223): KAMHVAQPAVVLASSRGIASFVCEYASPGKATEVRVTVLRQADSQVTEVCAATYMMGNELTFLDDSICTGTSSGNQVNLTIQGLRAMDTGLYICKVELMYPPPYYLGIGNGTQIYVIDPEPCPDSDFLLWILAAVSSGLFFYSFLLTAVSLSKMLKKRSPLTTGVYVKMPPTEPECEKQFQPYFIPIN

CD28 (human) [4] = biological target: CD28 (human) (UniProt P10747); remark: listed apart in the source
PD-L1 (human) [5] = biological target: PD-L1 (human) (UniProt Q9NZQ7); experiment: flow cytometry, CHO cells expressing PD-L1

Chain of PD-L1 (human) (Q9NZQ7 19-290): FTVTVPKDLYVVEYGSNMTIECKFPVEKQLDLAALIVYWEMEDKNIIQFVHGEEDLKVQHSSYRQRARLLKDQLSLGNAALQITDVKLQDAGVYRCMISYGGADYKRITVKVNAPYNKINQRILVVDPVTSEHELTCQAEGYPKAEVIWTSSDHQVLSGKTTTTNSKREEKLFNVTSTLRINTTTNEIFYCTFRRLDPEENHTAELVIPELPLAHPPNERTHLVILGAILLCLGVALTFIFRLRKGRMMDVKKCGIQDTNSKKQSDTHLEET

“CD80 Q33L/E35D/M47I/N48D/A71G IgV-Fc (inert) (Fc fusion)” was tested, and the Jurkat/IL2 reporter RLU at 50 nM, K562/OKT3/PD-L1 aAPC (CD28 (human) [1]) was 213 RLU and the Jurkat/IL2 reporter RLU at 50 nM, K562/OKT3/PD-L1 aAPC (PD-L1 (human) [2]) was 213 RLU.
In the case of “CD80 Q33L/E35D/M43I/Y53F/T62S/L85Q IgV-Fc (inert) (Fc fusion)”, the Jurkat/IL2 reporter RLU at 50 nM, K562/OKT3/PD-L1 aAPC (CD28 (human) [1]) is reported as 168 RLU and the Jurkat/IL2 reporter RLU at 50 nM, K562/OKT3/PD-L1 aAPC (PD-L1 (human) [2]) is reported as 168 RLU.
“CD80 E35D/M47I/L85Q/D90G IgV-Fc (inert) (Fc fusion)” was tested, and the Jurkat/IL2 reporter RLU at 50 nM, K562/OKT3/PD-L1 aAPC (CD28 (human) [1]) was 1440 RLU and the Jurkat/IL2 reporter RLU at 50 nM, K562/OKT3/PD-L1 aAPC (PD-L1 (human) [2]) was 1440 RLU.
With “CD80 V22L/Q27H/E35D/M47I/A71G IgV-Fc (inert) (Fc fusion)” the Jurkat/IL2 reporter RLU at 50 nM, K562/OKT3/PD-L1 aAPC (CD28 (human) [1]) was 1120 RLU and the Jurkat/IL2 reporter RLU at 50 nM, K562/OKT3/PD-L1 aAPC (PD-L1 (human) [2]) was 1120 RLU.
Substance “CD80 T28Y/Q33H/E35D/D46V/M47I/A71G IgV-Fc (inert) (Fc fusion)” has a Jurkat/IL2 reporter RLU at 50 nM, K562/OKT3/PD-L1 aAPC (CD28 (human) [1]) of 580 RLU and a Jurkat/IL2 reporter RLU at 50 nM, K562/OKT3/PD-L1 aAPC (PD-L1 (human) [2]) of 580 RLU.
“CD80 E35D/D46E/M47V/A71D/D90G IgV-Fc (inert) (Fc fusion)” gave a Jurkat/IL2 reporter RLU at 50 nM, K562/OKT3/PD-L1 aAPC (CD28 (human) [1]) of 1040 RLU and a Jurkat/IL2 reporter RLU at 50 nM, K562/OKT3/PD-L1 aAPC (PD-L1 (human) [2]) of 1040 RLU.
“CD80 E35D/M43I/M47V/K89N IgV-Fc (inert) (Fc fusion)” was tested, and the Jurkat/IL2 reporter RLU at 50 nM, K562/OKT3/PD-L1 aAPC (CD28 (human) [1]) was 1090 RLU and the Jurkat/IL2 reporter RLU at 50 nM, K562/OKT3/PD-L1 aAPC (PD-L1 (human) [2]) was 1090 RLU.
“CD80 V22D/E24D/E35D/M47V/V68M IgV-Fc (Fc fusion)” gave an MFI at 33.3 nM (CD28 (human) [3]) of 191 MFI and an MFI at 33.3 nM (human CTLA-4 (human)) of 16900 MFI.
“CD80 E35D/T41S/M47V/L97Q IgV-Fc (inert) (Fc fusion)” showed a Jurkat/IL2 reporter RLU at 50 nM, K562/OKT3/PD-L1 aAPC (CD28 (human) [1]) of 594 RLU and a Jurkat/IL2 reporter RLU at 50 nM, K562/OKT3/PD-L1 aAPC (PD-L1 (human) [2]) of 594 RLU.
“CD80 R29H/E35D/M43V/M47I/I49V IgV-Fc (inert) (Fc fusion)” gave a Jurkat/IL2 reporter RLU at 50 nM, K562/OKT3/PD-L1 aAPC (CD28 (human) [1]) of 227 RLU and a Jurkat/IL2 reporter RLU at 50 nM, K562/OKT3/PD-L1 aAPC (PD-L1 (human) [2]) of 227 RLU.
“CD80 E35D/D46E/M47V/A71D IgV-Fc (inert) (Fc fusion)” gave a Jurkat/IL2 reporter RLU at 50 nM, K562/OKT3/PD-L1 aAPC (CD28 (human) [1]) of 683 RLU and a Jurkat/IL2 reporter RLU at 50 nM, K562/OKT3/PD-L1 aAPC (PD-L1 (human) [2]) of 683 RLU.
For “CD80 E35D/Y53H/A71G/D90G/L97R IgV-Fc (inert) (Fc fusion)”, the Jurkat/IL2 reporter RLU at 50 nM, K562/OKT3/PD-L1 aAPC (CD28 (human) [1]) was 1720 RLU and the Jurkat/IL2 reporter RLU at 50 nM, K562/OKT3/PD-L1 aAPC (PD-L1 (human) [2]) was 1720 RLU.
Substance “CD80 H18Y/E35D/N48K IgV-Fc (inert) (Fc fusion)” has a Jurkat/IL2 reporter RLU at 50 nM, K562/OKT3/PD-L1 aAPC (CD28 (human) [1]) of 1230 RLU and a Jurkat/IL2 reporter RLU at 50 nM, K562/OKT3/PD-L1 aAPC (PD-L1 (human) [2]) of 1230 RLU.
“CD80 E35D/M47I/Y87Q/K89E IgV-Fc (inert) (Fc fusion)” showed a Jurkat/IL2 reporter RLU at 50 nM, K562/OKT3/PD-L1 aAPC (CD28 (human) [1]) of 1580 RLU and a Jurkat/IL2 reporter RLU at 50 nM, K562/OKT3/PD-L1 aAPC (PD-L1 (human) [2]) of 1580 RLU.
Substance “CD80 V22A/E35D/M47I/Y87N IgV-Fc (inert) (Fc fusion)” has a Jurkat/IL2 reporter RLU at 50 nM, K562/OKT3/PD-L1 aAPC (CD28 (human) [1]) of 1390 RLU and a Jurkat/IL2 reporter RLU at 50 nM, K562/OKT3/PD-L1 aAPC (PD-L1 (human) [2]) of 1390 RLU.
WT CD80-ECD-Fc (effector) (Fc fusion) showed a Jurkat/IL2 reporter RLU at 50 nM, K562/OKT3/PD-L1 aAPC (CD28 (human) [4]) of 3040 RLU and a Jurkat/IL2 reporter RLU at 50 nM, K562/OKT3/PD-L1 aAPC (CD28 (human) [1]) of 1790 RLU.
Work on “CD80 E35D/M38T/D46E/M47V/N48S IgV-Fc (inert) (Fc fusion)” yielded a Jurkat/IL2 reporter RLU at 50 nM, K562/OKT3/PD-L1 aAPC (CD28 (human) [1]) of 1320 RLU and a Jurkat/IL2 reporter RLU at 50 nM, K562/OKT3/PD-L1 aAPC (PD-L1 (human) [2]) of 1320 RLU.
“CD80 E35D/D46E/M47V/V68M/L85Q IgV-Fc (Fc fusion)” was tested, and the MFI at 33.3 nM (human CTLA-4 (human)) was 15500 MFI and the MFI at 33.3 nM (PD-L1 (human) [5]) was 1720 MFI.
“CD80 E35D/T41S/M43V/M47I/L70M/A71G IgV-Fc (inert) (Fc fusion)” gave a Jurkat/IL2 reporter RLU at 50 nM, K562/OKT3/PD-L1 aAPC (CD28 (human) [1]) of 1670 RLU and a Jurkat/IL2 reporter RLU at 50 nM, K562/OKT3/PD-L1 aAPC (PD-L1 (human) [2]) of 1670 RLU.
“CD80 E35D/L85Q/K93T/E95V/L97Q IgV-Fc (inert) (Fc fusion)” showed a Jurkat/IL2 reporter RLU at 50 nM, K562/OKT3/PD-L1 aAPC (CD28 (human) [1]) of 315 RLU and a Jurkat/IL2 reporter RLU at 50 nM, K562/OKT3/PD-L1 aAPC (PD-L1 (human) [2]) of 315 RLU.
Substance “CD80 E35D/M47V/A71G IgV-Fc (inert) (Fc fusion)” has a Jurkat/IL2 reporter RLU at 50 nM, K562/OKT3/PD-L1 aAPC (CD28 (human) [1]) of 1190 RLU and a Jurkat/IL2 reporter RLU at 50 nM, K562/OKT3/PD-L1 aAPC (PD-L1 (human) [2]) of 1190 RLU.
For “CD80 E35D/D46E/M47I/T62A/V68M/L85M/Y87C IgV-Fc (Fc fusion)”, the MFI at 33.3 nM (human CTLA-4 (human)) was 17000 MFI.
Substance “CD80 E35D/T41S/M43I/A71G/D90G IgV-Fc (inert) (Fc fusion)” has a Jurkat/IL2 reporter RLU at 50 nM, K562/OKT3/PD-L1 aAPC (CD28 (human) [1]) of 1120 RLU and a Jurkat/IL2 reporter RLU at 50 nM, K562/OKT3/PD-L1 aAPC (PD-L1 (human) [2]) of 1120 RLU.
For “CD80 Q33L/E35D/M47V/T62S/V68M/L85M IgV-Fc (Fc fusion)”, the MFI at 33.3 nM (CD28 (human) [3]) was 15 MFI and the MFI at 33.3 nM (human CTLA-4 (human)) was 86 MFI.
For “CD80 E35D/M47V/N48K/V68M/K89N IgV-Fc (inert) (Fc fusion)”, the Jurkat/IL2 reporter RLU at 50 nM, K562/OKT3/PD-L1 aAPC (CD28 (human) [1]) was 1440 RLU and the Jurkat/IL2 reporter RLU at 50 nM, K562/OKT3/PD-L1 aAPC (PD-L1 (human) [2]) was 1440 RLU.
“CD80 E35D/M47V/V68M/L85M/Y87D IgV-Fc (Fc fusion)” gave an MFI at 33.3 nM (human CTLA-4 (human)) of 13900 MFI and an MFI at 33.3 nM (PD-L1 (human) [5]) of 1720 MFI.
For “CD80 E35D/K37E/M47V/N48D/L85Q/D90N IgV-Fc (inert) (Fc fusion)”, the Jurkat/IL2 reporter RLU at 50 nM, K562/OKT3/PD-L1 aAPC (CD28 (human) [1]) was 851 RLU and the Jurkat/IL2 reporter RLU at 50 nM, K562/OKT3/PD-L1 aAPC (PD-L1 (human) [2]) was 851 RLU.
“CD80 E35D/D46E/M47V/N63D/L85Q IgV-Fc (inert) (Fc fusion)” showed a Jurkat/IL2 reporter RLU at 50 nM, K562/OKT3/PD-L1 aAPC (CD28 (human) [1]) of 1380 RLU and a Jurkat/IL2 reporter RLU at 50 nM, K562/OKT3/PD-L1 aAPC (PD-L1 (human) [2]) of 1380 RLU.
“CD80 Q27H/E35D/D46V/M47L/A71G IgV-Fc (inert) (Fc fusion)” was tested, and the Jurkat/IL2 reporter RLU at 50 nM, K562/OKT3/PD-L1 aAPC (CD28 (human) [1]) was 978 RLU and the Jurkat/IL2 reporter RLU at 50 nM, K562/OKT3/PD-L1 aAPC (PD-L1 (human) [2]) was 978 RLU.
Substance “CD80 R29C/E35D/M47L/V68M/A71G/L85M IgV-Fc (Fc fusion)” has an MFI at 33.3 nM (CD28 (human) [3]) of 16 MFI and an MFI at 33.3 nM (human CTLA-4 (human)) of 91 MFI.
